Values quoted from earlier work, collected in publication PMC9837045.
Where “and” joins values, the source holds several entries; their conditions need not be identical. Identical values can stand only once. Like-named read-outs stand apart in the source and are kept apart here.

Legend:
Activin A (Homo sapiens) = Activin A (Homo sapiens) (UniProt P08476); experiment: SPR
BMP9 (Homo sapiens) [1] = target: BMP9 (Homo sapiens) (UniProt Q9UK05)
BMP9 (Homo sapiens) [2] = target: BMP9 (Homo sapiens) (UniProt Q9UK05); remark: listed apart in the source
BMP9 (Homo sapiens) [3] = target: BMP9 (Homo sapiens) (UniProt Q9UK05); experiment: SPR
BMP9 (Homo sapiens) [4] = target: BMP9 (Homo sapiens) (UniProt Q9UK05); remark: listed apart in the source

Chain of UniProt Q9UK05 (Q9UK05 320-429): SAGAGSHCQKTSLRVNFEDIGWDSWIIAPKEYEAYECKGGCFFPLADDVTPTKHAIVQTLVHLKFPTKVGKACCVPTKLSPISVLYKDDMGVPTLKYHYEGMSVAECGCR
Chain of UniProt P08476 (P08476 311-426): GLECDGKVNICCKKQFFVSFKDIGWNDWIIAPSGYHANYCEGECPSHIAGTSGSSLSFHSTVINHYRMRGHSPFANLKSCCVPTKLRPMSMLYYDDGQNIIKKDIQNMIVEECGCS

Substance	Kd (Activin A (Homo sapiens))	other results
(ACVR2B)2-Fc ECD (from UniProt Q13705)	0.0125 nM	
BMPR2 ECD (from UniProt Q13873)	59 nM	
ALK1-ECD ECD (from UniProt P37023)		Kd (BMP9 (Homo sapiens) [1]): 0.0716 nM
ACVR2B ECD (from UniProt Q13705)	1.1 nM	
ALK2-Fc ECD (from UniProt Q04771)		Kd (BMP9 (Homo sapiens) [2]): 83 nM
ACVR2B-Fc ECD (from UniProt Q13705)	0.0092 nM	Kd (BMP9 (Homo sapiens) [3]): 0.033 nM and 0.116 nM
BMPR2-Fc ECD (from UniProt Q13873)	14 nM	
ACVR2A ECD (from UniProt P27037)	5.7 nM	
ALK1-Fc ECD (from UniProt P37023)		Kd (BMP9 (Homo sapiens) [4]): 0.0481 nM and 0.0455 nM; Kd (BMP9 (Homo sapiens) [3]): 0.0313 nM
ACVR2A-Fc ECD (from UniProt P27037)	0.13 nM	
ACVR2B-Fc (single ECD) ECD (from UniProt Q13705)	0.108 nM	
